Our source for the EC50 (read off the curve) and OD450 values is patent US20190127468A1.

Test [1] addresses mouse CTLA4-Fc fusion protein (mouse) (UniProt P09793). Description: ELISA, binding to plate-bound mouse CTLA4-Fc.
The target of test [2] is mouse CTLA4-Fc (mouse) (UniProt P09793). Description: ELISA on coated target; binder 10 ng/ml. On the technique in general: ELISA stands for enzyme-linked immunosorbent assay.
Test [3] has as its target human CTLA-4Fc mutant protein M11 (human). Description: ELISA on coated target; binder 10 ng/ml.
Test [4] has as its target mouse CTLA4-Fc (mouse) (UniProt P09793). Description: ELISA on coated target; binder 1000 ng/ml.
Test [5] has as its target human CTLA-4Fc mutant protein M11 (human). Description: ELISA on coated target; binder 1000 ng/ml.
Test [6] has as its target mouse CTLA4-Fc (mouse) (UniProt P09793). Description: ELISA on coated target; binder 0 (background).
For test [7], the target named is human CTLA-4Fc mutant protein M11 (human). Description: ELISA on coated target; binder 0 (background).
Sequence of human CTLA-4Fc mutant protein M11 (human) (chain, as listed by the source mutant limits assumed): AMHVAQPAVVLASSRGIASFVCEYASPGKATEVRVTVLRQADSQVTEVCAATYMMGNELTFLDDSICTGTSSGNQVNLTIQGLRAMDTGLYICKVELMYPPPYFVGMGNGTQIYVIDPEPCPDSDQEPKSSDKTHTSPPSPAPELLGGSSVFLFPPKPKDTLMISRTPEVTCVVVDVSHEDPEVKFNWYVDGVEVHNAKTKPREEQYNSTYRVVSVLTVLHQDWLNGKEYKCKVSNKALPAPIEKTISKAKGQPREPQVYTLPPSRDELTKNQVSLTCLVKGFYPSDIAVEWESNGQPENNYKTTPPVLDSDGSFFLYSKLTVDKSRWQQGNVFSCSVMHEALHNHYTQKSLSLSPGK
Test [8] deals with mouse CTLA4-Fc (mouse) (UniProt P09793). Description: ELISA on coated target; binder 100 ng/ml.
Test [9] concerns the target human CTLA-4Fc mutant protein M11 (human). Description: ELISA on coated target; binder 100 ng/ml.

As usually defined, the EC50 (read off the curve) is the concentration giving half of the maximal effect.

Values joined by “and” are separate entries in the source; they are usually repeats but may differ in a detail not shown here. Equal values may be shown once.

B1: anti-mouse CTLA4 mAb 9H10 (antibody, from another filing)
scFv: YPYDVPDYAGAQPARSDIVMTQSPSSLAVSVGEKVTISCKSSQSLLYGSSHYLAWYQQKVGQSPKLLIYWASTRHTGIPDRFIGSGSGTDFTLSLSSVQAEDMADYFCQQYFSTPWTFGAGTRVEIKSGSGGGSGGGSGGGSQVQLLQSESELVKPGASVKLSCKTSGYTFTDYYIHWVKQKPGQGLEWIGLINPNNDGTNYNQKFQGKATLTADKSSSTAYMELNSLTFDDSVIYFCARASSRLRMARTTSDYYAMDYWGQGIQVTVSSVDSSGSGGCKPCICTVPEVSSVFIFPPKPKDVLTITLTPKVTCVVVDISKDDPEVQFSWFVDDVEVHTAQTQPREEQFNSTFRSVSELPIMHQDWLNGKEFKCRVNSAAFPAPIEKTISKTKGRPKAPQVYTIPPPKEQMAKDKVSLTCMITDFFPEDITVEWQWNGQPAENYKNTQPIMDTDGSYFVYSKLNVQKSNWEAGNTFTCSVLHEGLHNHHTEKSLSHSPGK
For B1, in test [1], the EC50 (read off the curve) was determined as 1 µg/mL.

B2: chimeric L3D10 antibody (antibody, V domains shown)
VH: QVQLKESGPGLVAPSQSLSITCTVSGFSLTSYGLSWVRQPPGKGLEWLGVIWYDGNTNFHSALISRLTISKDNSKSQVFLELNSLQTDDTATYYCAKTEGHYYGSNYGYYALDYWGQGTSVTVSS
VL: DIQMTQSPASLSVSVGETVTITCRASENIYSNLAWYQQKQGKSPQLLVYAATNLADGVPSRFSGSGSGTQYSLKINSLQSEDFGTYFCQHLWGTPYTFGGGTKLEIKR
modifications: biotinylated (sites not given)
In the case of B2, the OD450 with mouse CTLA4-Fc (mouse) [2] was 0.201 OD and 0.18 OD; in [3], 0.19 OD and 0.194 OD; with mouse CTLA4-Fc (mouse) [4], 0.942 OD and 0.94 OD; in [5], 2.89 OD and 2.91 OD; in the test with mouse CTLA4-Fc (mouse) [6], 0.19 OD and 0.189 OD; in test [7] it was 0.171 OD and 0.155 OD. Moreover, the OD450 in the test with mouse CTLA4-Fc (mouse) [8] was 0.303 OD and 0.314 OD; in test [9], 0.752 OD and 0.746 OD.
